CN113797333A (SHANGHAI JUNSHI BIOSCIENCES CO LTD; JUNMENG BIOSCIENCES CO …, dated 2021)
Several values for one entry are separate records, joined by “and”; a condition that tells them apart may be missing. Identical values can stand only once.

Biological target: 全序列COVID-19刺突蛋白 (on COVID-19 pseudovirus) (COVID-19 (SARS-CoV-2), UniProt P0DTC2 14-1273)
Assay: cell-based or functional assay

B1: 人源化单克隆抗体CB6 (antibody, V domains shown)
VH: EVQLVESGGGLVQPGGSLRLSCAASGFTVSSNYMSWVRQAPGKGLEWVSVIYSGGSTFYADSVKGRFTISRDNSMNTLFLQMNSLRAEDTAVYYCARVLPMYGDYLDYWGQGTLVTVSS
VL: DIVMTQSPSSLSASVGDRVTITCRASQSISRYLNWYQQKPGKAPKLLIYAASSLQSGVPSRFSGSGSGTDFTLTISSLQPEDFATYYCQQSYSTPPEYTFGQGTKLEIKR
- IC50 of inhibition of COVID-19 pseudovirus infection of Huh-7 cells (luciferase): 0.183 nM and 0.0275 μg/ml
